Measured values: patent publication US12427210B2, “Compounds comprising a fibroblast activation protein ligand and use thereof” (priority 2019, dated 2025)

How the values were obtained:
BZD (central) = test: radioligand displacement, compound at 10 µM
[1] = target: Ca2+ channel (L, dihydropyridine site); test: radioligand displacement, compound at 10 µM
MAO-A = test: radioligand displacement, compound at 10 µM
KV channel = test: radioligand displacement, compound at 10 µM
Na+ channel (site 2) = test: radioligand displacement, compound at 10 µM
NMDA = test: radioligand displacement, compound at 10 µM
[2] = target: DPP7 (Homo sapiens (Human)) (UniProt Q9UHL4)
[3] = target: serine protease NS3 (a.a. 3-181) from Hepatitis C virus genotype 2a (Hepatitis C virus genotype 2a)
[4] = target: T1, Deubiquitinase OTUD6B (Homo sapiens (Human)) (UniProt Q8N6M0)
T1 sequence: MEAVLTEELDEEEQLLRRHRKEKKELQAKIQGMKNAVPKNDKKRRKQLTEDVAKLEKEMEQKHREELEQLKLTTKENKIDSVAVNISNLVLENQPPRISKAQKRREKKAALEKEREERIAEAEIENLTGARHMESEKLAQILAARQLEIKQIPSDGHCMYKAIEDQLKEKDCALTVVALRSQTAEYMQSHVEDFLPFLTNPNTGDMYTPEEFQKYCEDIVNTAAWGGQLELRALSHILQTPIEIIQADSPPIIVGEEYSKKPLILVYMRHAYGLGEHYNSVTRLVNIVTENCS

[5] = target: serine protease NS3 (a.a. 3-181) from Hepatitis C virus genotype 1a (mutant D168V) (Hepatitis C virus genotype 1a)
[6] = target: T2, Ubiquitin carboxy-terminal hydrolase L3 (Homo sapiens (Human)) (UniProt P15374)
T2 sequence: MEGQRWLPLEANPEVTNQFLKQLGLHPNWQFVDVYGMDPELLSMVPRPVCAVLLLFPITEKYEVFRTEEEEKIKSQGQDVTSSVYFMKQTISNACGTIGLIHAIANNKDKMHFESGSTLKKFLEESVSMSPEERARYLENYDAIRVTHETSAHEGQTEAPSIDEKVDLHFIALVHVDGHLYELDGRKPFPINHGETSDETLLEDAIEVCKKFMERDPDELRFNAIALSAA

[7] = target: T3, A20 (Homo sapiens (Human)) (UniProt P21580)
T3 sequence: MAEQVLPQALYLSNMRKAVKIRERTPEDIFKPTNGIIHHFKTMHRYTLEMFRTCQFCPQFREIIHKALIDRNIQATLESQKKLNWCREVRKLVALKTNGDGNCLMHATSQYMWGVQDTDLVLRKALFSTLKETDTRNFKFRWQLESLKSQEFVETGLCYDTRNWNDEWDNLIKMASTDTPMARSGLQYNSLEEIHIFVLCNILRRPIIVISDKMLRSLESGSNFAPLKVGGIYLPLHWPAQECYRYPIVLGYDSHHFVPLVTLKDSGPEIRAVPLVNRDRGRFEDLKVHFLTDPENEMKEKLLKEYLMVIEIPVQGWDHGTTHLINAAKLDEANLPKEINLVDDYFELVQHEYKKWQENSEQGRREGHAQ

[8] = target: T4, Caspase-7 (Homo sapiens (Human)) (UniProt P55210)
T4 sequence: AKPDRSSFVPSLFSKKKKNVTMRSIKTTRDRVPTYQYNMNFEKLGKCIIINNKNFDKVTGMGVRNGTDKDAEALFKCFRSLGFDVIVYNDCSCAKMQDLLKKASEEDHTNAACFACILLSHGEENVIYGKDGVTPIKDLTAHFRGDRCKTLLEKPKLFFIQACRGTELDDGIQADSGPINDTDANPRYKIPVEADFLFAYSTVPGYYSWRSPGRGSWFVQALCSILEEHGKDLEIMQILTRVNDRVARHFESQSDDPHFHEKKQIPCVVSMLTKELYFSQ

[9] = target: Caspase-8 (Homo sapiens (Human)) (UniProt Q14790)
[10] = target: serine protease NS3 (a.a. 3-181) from Hepatitis C virus genotype 1b (mutant R155Q) (Hepatitis C virus genotype 1b)
[11] = target: Cathepsin V (Homo sapiens (Human)) (UniProt O60911)
[12] = target: Ubiquitin carboxyl-terminal hydrolase 14 (Homo sapiens (Human)) (UniProt P54578)
[13] = target: Cathepsin S (Homo sapiens (Human)) (UniProt P25774)
[14] = target: Ubiquitin carboxyl-terminal hydrolase 7 (Homo sapiens (Human)) (UniProt Q93009)
[15] = target: Activated Protein C (Homo sapiens (Human)) (UniProt P04070)
[16] = target: Cathepsin L (Homo sapiens (Human)) (UniProt P07711)
[17] = target: Matrix metalloprotease1 (Homo sapiens (Human)) (UniProt P03956)
[18] = target: Matrix metalloprotease 9 (mutant Q279R) (Homo sapiens (Human)) (UniProt P14780)
[19] = target: T5, Caspase-6 (Homo sapiens (Human)) (UniProt P55212)
T5 sequence: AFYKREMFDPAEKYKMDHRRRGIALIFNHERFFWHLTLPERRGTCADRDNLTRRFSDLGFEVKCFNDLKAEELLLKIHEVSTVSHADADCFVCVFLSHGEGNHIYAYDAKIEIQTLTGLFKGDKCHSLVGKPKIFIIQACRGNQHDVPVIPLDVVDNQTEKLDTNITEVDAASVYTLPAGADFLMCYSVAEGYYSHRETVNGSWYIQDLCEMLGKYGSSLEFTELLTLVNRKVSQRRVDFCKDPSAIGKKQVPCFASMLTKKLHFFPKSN

[20] = target: Beta secretase (Homo sapiens (Human)) (UniProt P56817)
[21] = target: Matrix metalloprotease 2 (Homo sapiens (Human)) (UniProt P08253)
Chain of Matrix metalloprotease 2 (Homo sapiens (Human)) (P08253 110-660): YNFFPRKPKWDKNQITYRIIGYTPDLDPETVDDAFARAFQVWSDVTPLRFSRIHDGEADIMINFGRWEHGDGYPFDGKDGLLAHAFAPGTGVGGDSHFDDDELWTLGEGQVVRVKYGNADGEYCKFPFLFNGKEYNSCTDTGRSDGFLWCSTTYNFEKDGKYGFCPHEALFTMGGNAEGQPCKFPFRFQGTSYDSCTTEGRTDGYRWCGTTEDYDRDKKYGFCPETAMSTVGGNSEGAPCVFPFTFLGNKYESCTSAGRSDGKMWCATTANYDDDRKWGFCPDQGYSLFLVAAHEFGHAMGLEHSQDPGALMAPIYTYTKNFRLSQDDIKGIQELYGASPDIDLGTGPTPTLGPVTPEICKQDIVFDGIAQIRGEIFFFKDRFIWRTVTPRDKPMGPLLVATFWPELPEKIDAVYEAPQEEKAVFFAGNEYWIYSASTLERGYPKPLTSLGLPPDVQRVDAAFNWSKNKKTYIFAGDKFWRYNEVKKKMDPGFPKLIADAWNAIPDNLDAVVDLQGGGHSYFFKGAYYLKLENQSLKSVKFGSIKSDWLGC

Chain of Caspase-8 (Homo sapiens (Human)) (Q14790 217-479 limits assumed): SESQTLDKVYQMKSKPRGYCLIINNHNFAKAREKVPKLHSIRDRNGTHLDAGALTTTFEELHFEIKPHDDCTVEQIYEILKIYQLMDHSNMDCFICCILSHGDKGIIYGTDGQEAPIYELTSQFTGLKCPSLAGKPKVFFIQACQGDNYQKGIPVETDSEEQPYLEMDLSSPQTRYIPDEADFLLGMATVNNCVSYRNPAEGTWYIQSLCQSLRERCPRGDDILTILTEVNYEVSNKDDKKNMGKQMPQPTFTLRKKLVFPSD
Chain of Matrix metalloprotease1 (Homo sapiens (Human)) (P03956 100-469): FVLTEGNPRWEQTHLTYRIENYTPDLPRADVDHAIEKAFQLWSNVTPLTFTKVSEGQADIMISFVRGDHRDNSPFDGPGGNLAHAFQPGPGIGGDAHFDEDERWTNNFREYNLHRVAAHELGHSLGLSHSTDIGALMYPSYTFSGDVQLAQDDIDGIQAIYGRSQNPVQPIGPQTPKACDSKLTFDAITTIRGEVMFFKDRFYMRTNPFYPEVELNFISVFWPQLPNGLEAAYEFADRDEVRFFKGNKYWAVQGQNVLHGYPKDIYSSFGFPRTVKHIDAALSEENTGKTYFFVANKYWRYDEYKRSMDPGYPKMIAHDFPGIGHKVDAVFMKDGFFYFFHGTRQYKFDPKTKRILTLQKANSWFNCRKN

Substance: Hex-[Cys(tMeBn(DOTA-AET))-Pro-Pro-Thr-Gln-Phe-Cys]-OH (3BP-3554) (peptide)
- % Inhibition of Specific Binding (BZD (central)): 5%
- % Inhibition of Specific Binding [1]: 54%
- % Inhibition of Specific Binding (MAO-A): -25%
- % Inhibition of Specific Binding (KV channel): 4%
- % Inhibition of Specific Binding (Na+ channel (site 2)): 14%
- % Inhibition of Specific Binding (NMDA): 1%
- Percentage inhibition (%) (% inhibition at 10 µM) [2]: -7
- Percentage inhibition (%) (% inhibition at 10 µM) [3]: -40
- Percentage inhibition (%) (% inhibition at 10 µM) [4]: 0
- Percentage inhibition (%) (% inhibition at 10 µM) [5]: -372
- Percentage inhibition (%) (% inhibition at 10 µM) [6]: 0
- Percentage inhibition (%) (% inhibition at 10 µM) [7]: 0
- Percentage inhibition (%) (% inhibition at 10 µM) [8]: -7
- Percentage inhibition (%) (% inhibition at 10 µM) [9]: -3
- Percentage inhibition (%) (% inhibition at 10 µM) [10]: -5
- Percentage inhibition (%) (% inhibition at 10 µM) [11]: -1
- Percentage inhibition (%) (% inhibition at 10 µM) [12]: 2
- Percentage inhibition (%) (% inhibition at 10 µM) [13]: -23
- Percentage inhibition (%) (% inhibition at 10 µM) [14]: 1
- Percentage inhibition (%) (% inhibition at 10 µM) [15]: 1
- Percentage inhibition (%) (% inhibition at 10 µM) [16]: -6
- Percentage inhibition (%) (% inhibition at 10 µM) [17]: -7
- Percentage inhibition (%) (% inhibition at 10 µM) [18]: 2
- Percentage inhibition (%) (% inhibition at 10 µM) [19]: -3
- Percentage inhibition (%) (% inhibition at 10 µM) [20]: 7
- Percentage inhibition (%) (% inhibition at 10 µM) [21]: -2

Substance: Hex-[Cys(tMeBn(DOTA-PP))-Pro-Pro-Thr-Gln-Phe-Cys]-Asp-NH2 (3BP-3407) (peptide)
- % Inhibition of Specific Binding (BZD (central)): -9%
- % Inhibition of Specific Binding [1]: 42%
- % Inhibition of Specific Binding (MAO-A): -5%
- % Inhibition of Specific Binding (KV channel): -5%
- % Inhibition of Specific Binding (Na+ channel (site 2)): -7%
- % Inhibition of Specific Binding (NMDA): 9%
- Percentage inhibition (%) (% inhibition at 10 µM) [2]: -3
- Percentage inhibition (%) (% inhibition at 10 µM) [3]: -2
- Percentage inhibition (%) (% inhibition at 10 µM) [4]: 15
- Percentage inhibition (%) (% inhibition at 10 µM) [5]: -68
- Percentage inhibition (%) (% inhibition at 10 µM) [6]: 14
- Percentage inhibition (%) (% inhibition at 10 µM) [7]: -4
- Percentage inhibition (%) (% inhibition at 10 µM) [8]: -3
- Percentage inhibition (%) (% inhibition at 10 µM) [9]: 0
- Percentage inhibition (%) (% inhibition at 10 µM) [10]: 2
- Percentage inhibition (%) (% inhibition at 10 µM) [11]: -18
- Percentage inhibition (%) (% inhibition at 10 µM) [12]: 5
- Percentage inhibition (%) (% inhibition at 10 µM) [13]: 18
- Percentage inhibition (%) (% inhibition at 10 µM) [14]: 5
- Percentage inhibition (%) (% inhibition at 10 µM) [15]: 8
- Percentage inhibition (%) (% inhibition at 10 µM) [16]: 6
- Percentage inhibition (%) (% inhibition at 10 µM) [17]: 2
- Percentage inhibition (%) (% inhibition at 10 µM) [18]: 2
- Percentage inhibition (%) (% inhibition at 10 µM) [19]: -1
- Percentage inhibition (%) (% inhibition at 10 µM) [20]: -5
- Percentage inhibition (%) (% inhibition at 10 µM) [21]: 3
